Test results: patent publication US20250002563A1

Biological target: SARS-CoV-2 spike on pseudotyped virus particles (Wuhan-Hu-1 strain) (SARS-CoV-2) (UniProt P0DTC2)
Assay: cell-based or functional assay

Row | Substance | IC50, pseudovirus luciferase assay [pM]
1 | homotrimeric Nb21 | 1.3
2 | homotrimeric Nb20 | 3
